Drawing on the supplement of paper PMC10567573, this text covers protein stability index for 94 variants.

B1: TCAP (parent)
chain: YQRVLPLPIFTPAKMGATKEERED
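Also: lentivirally expressed fusions sorted by FACS into six bins by GFP to DsRed ratio, PSI derived from sequencing read proportions per bin multiplied by bin number.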

This series covers variants of B1. Nature of the series: protein stability index of a GFP-peptide fusion (GPS, HEK-293T) (PSI 1-6); higher = more stable. As to conditions: c terminus: a fixed tail appended.
Consider YQRVLPLPIFTPAKMGATKEEKED, for which the protein stability index came out at 2.09. As for YQRVLPLPIFTPAKMGATKEEPED, the protein stability index came out at 1.87. As for YQRVLPLPIFTPAKMGATKEEIED, the protein stability index came out at 1.93. YQRVLPLPIFTPAKMGATKEEHED: the protein stability index was determined as 1.95. YQRVLPLPIFTPAKMGATKEEGED: the protein stability index was found to be 2.47. Consider YQRVLPLPIFTPAKMGATKEEAED, for which the protein stability index is 1.9. Regarding YQRVLPLPIFTPAKMGATKEETED, the protein stability index was found to be 1.86.

Turning to YQRVLPLPIFTPAKMGATKEEFED, the protein stability index worked out at 1.85.

For the variant YQRVLPLPIFTPACMGATKEERED, the protein stability index was 1.69. YQRVLPLPIFTPAMMGATKEERED: the protein stability index was found to be 1.77. As to YQRVLPLPIFTPAYMGATKEERED, the protein stability index was 1.97. Consider YQRVLPLPIFTPADMGATKEERED, for which the protein stability index is 3.13. Take YQRVLPLPIFTPAPMGATKEERED: the protein stability index is 2.62. With YQRVLPLPIFTPAFMGATKEERED, the protein stability index came to 2.04. YQRVLPLPIFTPAAMGATKEERED: the protein stability index worked out at 1.64.

On to YQRVLPLPIFTPANMGATKEERED, for which the protein stability index stood at 2.32. For the variant YQRVLPLPIFTPALMGATKEERED, the protein stability index was found to be 1.81.

In the case of YQRVLPLPIFTPARMGATKEERED, the protein stability index worked out at 2.21. Consider YQRVLPLPIFTPATMGATKEERED, for which the protein stability index was determined as 1.99. On to YQRVLPLPIFTPASMGATKEERED, for which the protein stability index was found to be 2.46. As to YQRVLPLPIFTPAVMGATKEERED, the protein stability index was determined as 2.78. On to YQRVLPLPIFTPAEMGATKEERED, for which the protein stability index was 2.63.

For YQRVLPLPIFTPAIMGATKEERED, the protein stability index was 1.61. With YQRVLPLPIFTPAGMGATKEERED, the protein stability index turned out to be 2.65.

YQRVLPLPIFTPAQMGATKEERED: the protein stability index was determined as 2.32. In the case of YQRVLPLPIFTPAHMGATKEERED, the protein stability index came to 2.18. As to YQRVLPLPIFTPAWMGATKEERED, the protein stability index is 1.59. Turning to YQRVLPLPIFTPAKMGATKEARED, the protein stability index came out at 1.91. In the case of YQRVLPLPIFTPAKMGATKESRED, the protein stability index was 1.91. In the case of YQRVLPLPIFTPAKMGATKETRED, the protein stability index worked out at 1.92. With YQRVLPLPIFTPAKMGATKEIRED, the protein stability index was 2.2.

As for YQRVLPLPIFTPAKMGATKEYRED, the protein stability index was found to be 2.14. As for YQRVLPLPIFTPAKMGATKEWRED, the protein stability index came to 2.41. Take YQRVLPLPIFTPAKMGATKEVRED: the protein stability index was 2.35. With YQRVLPLPIFTPAKMGATKEFRED, the protein stability index came out at 1.95. For the variant YQRVLPLPIFTPAKMGATKEMRED, the protein stability index was 1.93.

As for YQRVLPLPIFTPAKMGATKEQRED, the protein stability index came to 1.98. Regarding YQRVLPLPIFTPAKMGATKEHRED, the protein stability index was determined as 2.22. Take YQRVLPLPIFTPAKMGATKEDRED: the protein stability index was found to be 2.

Take YQRVLPLPIFTPAKMGATKERRED: the protein stability index came out at 1.97. YQRVLPLPIFTPAKMGATKELRED: the protein stability index stood at 2.06. For YQRVLPLPIFTPAKMGATKECRED, the protein stability index is 2.28.

YQRVLPLPIFTPAKMGATKEKRED: the protein stability index is 2.1. As for YQRVLPLPIFTPAKMGATKEPRED, the protein stability index turned out to be 2.54. Consider YQRVLPLPIFTPAKMGATKEGRED, for which the protein stability index came to 1.75. As to YQRVLPLPIFTPAKMGATKENRED, the protein stability index is 1.81.

As to YQRVLPLPIFTPAKMGATKIERED, the protein stability index is 2.04. YQRVLPLPIFTPAKMGATKWERED: the protein stability index came to 2.2. With YQRVLPLPIFTPAKMGATKTERED, the protein stability index was 2.13. Consider YQRVLPLPIFTPAKMGATKNERED, for which the protein stability index came out at 1.89. For the variant YQRVLPLPIFTPAKMGATKSERED, the protein stability index turned out to be 2.11.

YQRVLPLPIFTPAKMGATKCERED: the protein stability index came out at 1.87. For YQRVLPLPIFTPAKMGATKLERED, the protein stability index stood at 2.13. Under YQRVLPLPIFTPAKMGATKPERED stands 1.92; under YQRVLPLPIFTPAKMGATKDERED, 2.02. The result for YQRVLPLPIFTPAKMGATKAERED reads 1.94; that for YQRVLPLPIFTPAKMGATKMERED, 2.4. Turning to YQRVLPLPIFTPAKMGATKVERED, the protein stability index came out at 1.65.

Consider YQRVLPLPIFTPAKMGATKYERED, for which the protein stability index stood at 2.67. For the variant YQRVLPLPIFTPAKMGATKHERED, the protein stability index turned out to be 2.78. As for YQRVLPLPIFTPAKMGATKRERED, the protein stability index was found to be 2.48.

Take YQRVLPLPIFTPAKMGATKKERED: the protein stability index amounted to 1.81. Take YQRVLPLPIFTPAKMGATKGERED: the protein stability index was 2.23. With YQRVLPLPIFTPAKMGATKFERED, the protein stability index was 1.72. In the case of YQRVLPLPIFTPAKMGATKQERED, the protein stability index is 1.73. Consider YQRVLPLPIFTPWKMGATKEERED, for which the protein stability index was determined as 2.02. YQRVLPLPIFTPSKMGATKEERED: the protein stability index came to 2.53.

In the case of YQRVLPLPIFTPQKMGATKEERED, the protein stability index was determined as 1.95. Consider YQRVLPLPIFTPNKMGATKEERED, for which the protein stability index worked out at 1.67. The result for YQRVLPLPIFTPVKMGATKEERED reads 2.2; that for YQRVLPLPIFTPPKMGATKEERED, 3.8; that for YQRVLPLPIFTPRKMGATKEERED, 2.44. Take YQRVLPLPIFTPTKMGATKEERED: the protein stability index came out at 2.64. Turning to YQRVLPLPIFTPMKMGATKEERED, the protein stability index was found to be 2.31. The result for YQRVLPLPIFTPYKMGATKEERED reads 1.86. Under YQRVLPLPIFTPAKMLATKEERED stands 1.81. For the variant YQRVLPLPIFTPAKMYATKEERED, the protein stability index is 2.07. YQRVLPLPIFTPAKMMATKEERED: the protein stability index was found to be 1.56. The result for YQRVLPLPIFTPAKMPATKEERED reads 1.96; that for YQRVLPLPIFTPAKMDATKEERED, 1.92; that for YQRVLPLPIFTPAKMEATKEERED, 2.16. For YQRVLPLPIFTPAKMAATKEERED, the protein stability index amounted to 1.9. On to YQRVLPLPIFTPAKMNATKEERED, for which the protein stability index is 1.67. The result for YQRVLPLPIFTPAKMHATKEERED reads 1.34; that for YQRVLPLPIFTPAKMCATKEERED, 2.06; that for YQRVLPLPIFTPAKMWATKEERED, 1.8.

Turning to YQRVLPLPIFTPAKMFATKEERED, the protein stability index is 2.14. For the variant YQRVLPLPIFTPAKMQATKEERED, the protein stability index worked out at 2.24. YQRVLPLPIFTPAKMVATKEERED: the protein stability index was 2.39.

YQRVLPLPIFTPAKMSATKEERED: the protein stability index turned out to be 2.16. Take YQRVLPLPIFTPAKMTATKEERED: the protein stability index turned out to be 1.95. Regarding YQRVLPLPIFTPAKMIATKEERED, the protein stability index was found to be 1.92. Consider YQRVLPLPIFTPAKMKATKEERED, for which the protein stability index is 1.7. Take YQRVLPLPIFTPAKMRATKEERED: the protein stability index is 2.05.
